Holding throughout (experiment): peptide SPOT array, c-Myc-tagged receptor at 1 uM or 100 nM, anti-c-Myc-Cy3
One assay concerns the target Bcl-2, P10415.
In the next assay the target is T1, Bcl-w, Q92843.
T1 chain: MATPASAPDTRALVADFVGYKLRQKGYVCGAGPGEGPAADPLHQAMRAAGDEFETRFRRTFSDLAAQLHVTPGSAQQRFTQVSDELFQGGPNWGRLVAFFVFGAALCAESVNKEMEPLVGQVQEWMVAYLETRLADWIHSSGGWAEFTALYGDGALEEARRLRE

The next assay concerns the target T2, Bfl-1, Q16548.
T2 chain: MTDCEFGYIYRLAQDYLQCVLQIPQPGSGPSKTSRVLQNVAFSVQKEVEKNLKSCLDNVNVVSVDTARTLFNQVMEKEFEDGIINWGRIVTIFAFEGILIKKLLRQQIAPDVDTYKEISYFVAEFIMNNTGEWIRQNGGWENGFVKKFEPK

In the next assay the target is Bcl-xL, Q07817.
The next assay concerns the target T3, Mcl-1, Q07820.
T3 chain: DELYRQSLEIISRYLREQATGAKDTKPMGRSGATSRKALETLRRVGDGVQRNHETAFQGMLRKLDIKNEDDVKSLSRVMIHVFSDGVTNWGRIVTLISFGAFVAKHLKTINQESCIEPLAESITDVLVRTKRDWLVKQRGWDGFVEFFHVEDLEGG

Sequence of Bcl-2, P10415 (P10415 1-217): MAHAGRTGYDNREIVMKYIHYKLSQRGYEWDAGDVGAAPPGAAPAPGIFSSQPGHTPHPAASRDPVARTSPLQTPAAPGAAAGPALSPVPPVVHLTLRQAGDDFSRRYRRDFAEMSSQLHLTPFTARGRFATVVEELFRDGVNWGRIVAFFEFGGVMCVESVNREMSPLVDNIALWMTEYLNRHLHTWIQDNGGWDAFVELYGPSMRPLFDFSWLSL
Sequence of Bcl-xL, Q07817 (Q07817 1-209): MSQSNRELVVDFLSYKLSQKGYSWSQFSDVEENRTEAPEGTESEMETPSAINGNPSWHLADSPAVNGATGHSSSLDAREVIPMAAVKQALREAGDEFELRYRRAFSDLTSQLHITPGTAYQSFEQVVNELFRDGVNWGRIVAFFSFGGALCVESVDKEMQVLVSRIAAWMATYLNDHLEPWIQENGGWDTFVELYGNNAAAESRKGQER

On to AGLDMNISQFLKSLGLEHLRDIFETE, for which the SPOT signal as a fraction of Bim BH3's signal on the same receptor and array in the assay with Bcl-2, P10415 is 0.01; with Bcl-w, Q92843 it was 0.02; with Bfl-1, Q16548, 0.03.
On to FVGYNSTGAELRHWLDMLANPRRPIA [SYT1], for which the SPOT signal as a fraction of Bim BH3's signal on the same receptor and array was found to be 0.32 with Bcl-xL, Q07817; 0.21 with Bfl-1, Q16548; 0.21 in the assay with Mcl-1, Q07820.
In the case of SGEFARICRDLSHIGDAVVISCAKDG [PCNA], the SPOT signal as a fraction of Bim BH3's signal on the same receptor and array was 0.01 with Bcl-2, P10415; 0.03 in the assay with Bcl-w, Q92843; 0.03 with Bfl-1, Q16548.
Turning to AYRGRGIAKHLAKAALDFVVEEDLKA [C17orf103], the SPOT signal as a fraction of Bim BH3's signal on the same receptor and array is 0.05 in the assay with Bcl-2, P10415; 0.29 in the assay with Bcl-w, Q92843; 0.36 with Bcl-xL, Q07817; 0.11 in the assay with Bfl-1, Q16548; 0.07 with Mcl-1, Q07820.
For the molecule VKVFGKAVQALSRISDEFWLDPSKKG [RAD9B], the SPOT signal as a fraction of Bim BH3's signal on the same receptor and array came to 0.1 with Bcl-2, P10415; 0.89 with Bcl-w, Q92843; 0.23 in the assay with Bfl-1, Q16548.
As to EQILAKIVELLKYSGDQLERKLKKDK [BCL2L14], the SPOT signal as a fraction of Bim BH3's signal on the same receptor and array with Bcl-2, P10415 is 0.49; in the assay with Bcl-w, Q92843, 0.74; with Bfl-1, Q16548, 0.75.
As to WLKGDILGEKDVNLADCLCNEDLESR [RNF160], the SPOT signal as a fraction of Bim BH3's signal on the same receptor and array in the assay with Bcl-xL, Q07817 was determined as 0.07; with Bfl-1, Q16548 it was 0.05; in the assay with Mcl-1, Q07820, 0.04.
The matching figures for AELEVECATQDRRFGDKLNFRQKLLN [PMAIP1]: 0.06, 0.07 and 0.05.
On to MEGSDALALRLACIGDEMDVSLRAPR [BIK], for which the SPOT signal as a fraction of Bim BH3's signal on the same receptor and array with Bcl-2, P10415 is 0.72; with Bcl-w, Q92843, 0.74; with Bfl-1, Q16548 it was 0.43.
Take HPKRKQVTELLLRKGANVNEKNKDFM: the SPOT signal as a fraction of Bim BH3's signal on the same receptor and array was found to be 0.13 with Bcl-2, P10415; 0.5 in the assay with Bcl-w, Q92843; 0.48 with Bfl-1, Q16548.
For QLRLSDAGQYLCQAGDDSNSNKKNAD [PIGR], the SPOT signal as a fraction of Bim BH3's signal on the same receptor and array amounted to 0.01 with Bcl-2, P10415; 0.02 with Bcl-w, Q92843; 0.03 with Bcl-xL, Q07817; 0.03 with Bfl-1, Q16548; 0.02 with Mcl-1, Q07820.
On to VKVLGKAVHSLSRIGDELYLEPLEDG [RAD9A], for which the SPOT signal as a fraction of Bim BH3's signal on the same receptor and array with Bcl-2, P10415 came to 0.01; in the assay with Bcl-w, Q92843, 0.02; in the assay with Bfl-1, Q16548 it was 0.03.
Consider ISSLDLLPYGLRYIAKVLKNSIHEKF [IQGAP2], for which the SPOT signal as a fraction of Bim BH3's signal on the same receptor and array was 0.8 with Bcl-xL, Q07817; 0.64 in the assay with Bfl-1, Q16548; 0.57 with Mcl-1, Q07820.
APEEDFFSIHDRIVGDWTEGLFNACG [CYBB]: the SPOT signal as a fraction of Bim BH3's signal on the same receptor and array amounted to 0.05 in the assay with Bcl-xL, Q07817; 0.03 with Bfl-1, Q16548; 0.03 with Mcl-1, Q07820.
In the case of EGTKIVLGKQLIESADEVRRKSLVLK [TAF1], the SPOT signal as a fraction of Bim BH3's signal on the same receptor and array with Bcl-2, P10415 came out at 0.07; with Bcl-w, Q92843, 0.48; in the assay with Bfl-1, Q16548 it was 0.34.
As for HVDGLHSSEELRNLGWDFSQEKPSTT [SETD2], the SPOT signal as a fraction of Bim BH3's signal on the same receptor and array in the assay with Bcl-2, P10415 turned out to be 0.01; with Bcl-w, Q92843, 0.02; with Bfl-1, Q16548, 0.02.
FQQLRHRIQDLEQLAKEQDKESEKQL [BNIP1]: the SPOT signal as a fraction of Bim BH3's signal on the same receptor and array was determined as 0.02 with Bcl-2, P10415; 0.04 with Bcl-w, Q92843; 0.08 with Bfl-1, Q16548.
Turning to NGGLLEFHKSDQEIGDKNDHWFDIDP [DZIP3], the SPOT signal as a fraction of Bim BH3's signal on the same receptor and array in the assay with Bcl-xL, Q07817 stood at 0.12; with Bfl-1, Q16548, 0.04; with Mcl-1, Q07820, 0.04.
With CGEWTRRSLHLRVLGRQLILPTDKGV [FAM149A], the SPOT signal as a fraction of Bim BH3's signal on the same receptor and array with Bcl-xL, Q07817 is 1.07; in the assay with Bfl-1, Q16548, 0.7; in the assay with Mcl-1, Q07820, 0.76.
In the case of TRRSMVFARHLREVLDEFRSRHLNST [POFUT2], the SPOT signal as a fraction of Bim BH3's signal on the same receptor and array with Bcl-xL, Q07817 is 0.74; with Bfl-1, Q16548, 0.61; in the assay with Mcl-1, Q07820, 0.9.
With TSRINEVQVNDSLLGDDLLLPAQSTL [SPHKAP], the SPOT signal as a fraction of Bim BH3's signal on the same receptor and array with Bcl-xL, Q07817 was 0.05; with Bfl-1, Q16548, 0.03; with Mcl-1, Q07820 it was 0.03.
Consider PFDCRDYAVVLRKYADKIYNISMKHP [FOLH1B], for which the SPOT signal as a fraction of Bim BH3's signal on the same receptor and array with Bcl-2, P10415 came out at 0.36; with Bcl-w, Q92843, 1.25; with Bfl-1, Q16548, 0.63.
Consider GYPFNDVCQWFIDRLDLIFVVFDPTK [SRL], for which the SPOT signal as a fraction of Bim BH3's signal on the same receptor and array in the assay with Bcl-xL, Q07817 turned out to be 0.06; in the assay with Bfl-1, Q16548 it was 0.05; with Mcl-1, Q07820 it was 0.05.
LFWTPLLVVLLAGLGDTEAQQTTLHP [SGCA]: the SPOT signal as a fraction of Bim BH3's signal on the same receptor and array in the assay with Bcl-xL, Q07817 turned out to be 0.06; with Bfl-1, Q16548, 0.04; with Mcl-1, Q07820, 0.04.
In the case of KGKIDVCIVLLQHGADPNIRNTDGKS, the SPOT signal as a fraction of Bim BH3's signal on the same receptor and array in the assay with Bcl-2, P10415 came to 0.02; with Bcl-w, Q92843, 0.03; with Bfl-1, Q16548 it was 0.1.
Regarding SQGKHGFTMADNAFGDMTNEEFRQMM [CTSL2], the SPOT signal as a fraction of Bim BH3's signal on the same receptor and array with Bcl-xL, Q07817 amounted to 0.06; with Bfl-1, Q16548 it was 0.05; with Mcl-1, Q07820 it was 0.06.

The record behind these values is article PMC4072508, “Genome-Wide Prediction and Validation of Peptides That Bind Human Prosurvival Bcl-2 Proteins” (PLoS Computational Biology, 2014).
